Data set [1] deals with the molecule itself. Kind of data set: SEC-MALS; Superdex 200 Increase 10/300 GL, 20 mM HEPES pH 7.5, 150 mM NaCl, 1 mM TCEP, 0.5 ml/min. (In general: SEC sorts molecules by how far they enter the pores of the column.)
In data set [2] the target is T1, CrkII NSH3 domain (CrkII^NSH3, residues 134–191) (human, UniProt P46108-1 134-191).
T1 construct: human CrkII residues 134-191, N-terminal SH3 domain
Kind of data set: SPR; Biacore S200; CrkII^NSH3 amine coupled to CM5, peptides injected; 20 °C, HBS-TP (20 mM HEPES pH 7.4, 150 mM NaCl, 1 mM TCEP, 0.005% Tween-P20); steady-state 1:1 fit. The settings on record: both partners purified.

The target in data set [3] is T2, CrkII SH2 domain (CrkII^SH2, residues 6-120) (human, UniProt P46108-1 6-120, biotin (EZ-Link NHS-PEG4-Biotin, 1:1 molar ratio) where it was immobilised (a1)).
T2 construct: human CrkII SH2 domain, UniProt P46108-1, residues 6-120; The His tag is TEV-cleavable and was cleaved 'when required'
Briefly: SPR; biotinylated adapter proteins captured with a biotin CAPture kit, pY peptides as analytes; Biacore 8K+, 20 °C, HBS-TP (20 mM HEPES pH 7.4, 150 mM NaCl, 1 mM TCEP, 0.005% Tween-P20) with 2% DMSO; 1 M NaCl regeneration; steady state, 1:1 model. The settings on record: both partners purified. (In general: In SPR one partner is held on a chip, and binding of the other changes the refractive index at the surface.)

For data set [4], the target named is T3, full length CrkII, monomer (CrkII^FL monomer) (human, UniProt P46108-1 1-304, biotin (EZ-Link NHS-PEG4-Biotin, 1:1 molar ratio) where it was immobilised (a1)).
T3 construct: full length human CrkII, printed as UniProt P46108-1, residues 1-330
The description is as above. Particulars: both partners purified.

The target in data set [5] is T4, full length CrkII, dimer (CrkII^FL dimer) (human, UniProt P46108-1 1-304, biotin (EZ-Link NHS-PEG4-Biotin, 1:1 molar ratio) where it was immobilised (a1)).
T4 construct: full length human CrkII, printed as UniProt P46108-1, residues 1-330
The description is as above. The settings on record: both partners purified.

The target in data set [6] is T5, Grb2 SH2 domain (Grb2^SH2) (human, UniProt P62993-1 60-152, biotin (EZ-Link NHS-PEG4-Biotin, 1:1 molar ratio) where it was immobilised (a1)).
T5 construct: SH2 domain of human Grb2; This construct is not in the list of the methods; the other adapter constructs were made in E. coli C41 (DE3) with an N-terminal His8 tag
The data set is described as above. Particulars: both partners purified.

Data set [7] addresses T6, full length Grb2 (Grb2^FL, residues 1-217) (human, UniProt P62993-1 1-217, biotin (EZ-Link NHS-PEG4-Biotin, 1:1 molar ratio) where it was immobilised (a1)).
T6 construct: full length human Grb2, UniProt P62993-1, residues 1-217
The data set is described as above. The settings on record: both partners purified.

The target in data set [8] is T1, CrkII NSH3 domain (CrkII^NSH3, residues …). Briefly: SPR; Biacore S200; CrkII^NSH3 amine coupled to CM5, peptides injected; 20 °C, HBS-TP (20 mM HEPES pH 7.4, 150 mM NaCl, 1 mM TCEP, 0.005% Tween-P20); steady-state 1:1 fit. Particulars: both partners purified. This is another data set of the same source.
For data set [9] the target is unchanged. Briefly: ITC; ternary, sequential; CrkII^NSH3 (400 μM, syringe) titrated into the peptide (16.8 µM) left in the cell after a first titration with 14-3-3ɣ; 25 °C, 20 mM HEPES pH 7.4, 150 mM NaCl, 1 mM TCEP. Particulars: both partners purified.

Non-standard residues stand in square brackets, D forms with d. pY = N[C@@H](Cc1ccc(OP(=O)(O)O)cc1)C(=O)O

We go through five molecules from PMC10279719 (Nature Communications, 2023).

In general, stoichiometry N refers to a count of units in the complex or per binding partner. Broadly, the Kd is the free concentration of one partner at which half of the binding sites on the other are occupied at equilibrium, for simple one-to-one binding.

B1: PEAK2IDR1 (PEAK2 residues 802-1406) (domain or fragment, human, UniProt Q86YV5 802-1406, looked up)
chain: EDVSPSGPQQPPPLPQKKIVSRAASSPDGFFWTQGSPKPGTASPKLNLSHSETNVHDESHFSYSLSPGNRHHPVFSSSDPLEKAFKGSGHWLPAAGLAGNRGGCGSPGLQCKGAPSASSSQLSVSSQASTGSTQLQLHGLLSNISSKEGTYAKLGGLYTQSLARLVAKCEDLFMGGQKKELHFNENNWSLFKLTCNKPCCDSGDAIYYCATCSEDPGSTYAVKICKAPEPKTVSYCSPSVPVHFNIQQDCGHFVASVPSSMLSSPDAPKDPVPALPTHPPAQEQDCVVVITREVPHQTASDFVRDSAASHQAEPEAYERRVCFLLLQLCNGLEHLKEHGIIHRDLCLENLLLVHCTLQAGPGPAPAPAPAPAPAAAAPPCSSAAPPAGGTLSPAAGPASPEGPREKQLPRLIISNFLKAKQKPGGTPNLQQKKSQARLAPEIVSASQYRKFDEFQTGILIYELLHQPNPFEVRAQLRERDYRQEDLPPLPALSLYSPGLQQLAHLLLEADPIKRIRIGEAKRVLQCLLWGPRRELVQQPGTSEEALCGTLHNWIDMKRALMMMKFAEKAVDRRRGVELEDWLCCQYLASAEPGALLQSLKLLQLL
modifications: phosphorylated at the tandem site 14-3-3 motif (RAASSP) by LC MS/MS
notes: PEAK2 (SgK223, PRAG1), human, UniProt Q86YV5, residues 802-1406; Homodimer by SEC-MALS; TEV-cleavable tag
In the case of B1, the “stoichiometry N” value in [1] worked out at 2.

B2: PEAK3^54–66 peptide (Ac-PLPPPLPKKILTR-NH2) (peptide)
peptide: Ac-PLPPPLPKKILTR-NH2
notes: also called PEAK3 PRM peptide; source: synthetic peptide, bought: Mimotopes
Regarding B2, the Kd in [2] is 1.7 µM.

B3: PEAK3 23-38-pY24 peptide (Ac-T(pY)SNLGQIRAHLLPSK-NH2) (peptide)
peptide: Ac-T[pY]SNLGQIRAHLLPSK-NH2
SMILES: CC[C@H](C)[C@H](NC(=O)[C@H](CCC(N)=O)NC(=O)CNC(=O)[C@H](CC(C)C)NC(=O)[C@H](CC(N)=O)NC(=O)[C@H](CO)NC(=O)[C@H](Cc1ccc(OP(=O)(O)O)cc1)NC(=O)[C@@H](NC(C)=O)[C@@H](C)O)C(=O)N[C@@H](CCCNC(=N)N)C(=O)N[C@@H](C)C(=O)N[C@@H](Cc1c[nH]cn1)C(=O)N[C@@H](CC(C)C)C(=O)N[C@@H](CC(C)C)C(=O)N1CCC[C@H]1C(=O)N[C@@H](CO)C(=O)N[C@@H](CCCCN)C(N)=O
notes: source: synthetic peptide, bought: Mimotopes (95% purity)
B3: the Kd in data set [3] is 5.3 µM; in [4], 6.8 µM; in [5] it was 6.2 µM; in data set [6], 4.2 µM; in data set [7], 2.2 µM.

B4: PEAK2^709–721 peptide (Ac-FSPPPPPPKSRHL-NH2) (peptide)
peptide: Ac-FSPPPPPPKSRHL-NH2
notes: human PEAK2 (SgK223, PRAG1) residues 709-721; also called second PRM of PEAK2; source: synthetic peptide, bought: Mimotopes
In data set [8], B4 gave a Kd of 13 µM.

B5: PEAK3^tandem peptide, non-phosphorylated (residues 54–74; Ac-PLPPPLPKKILTRTQSLPTRR-NH2) (peptide)
peptide: Ac-PLPPPLPKKILTRTQSLPTRR-NH2
notes: source: synthetic peptide, bought: Mimotopes
As for B5, binding in [9] was put at a Kd of 0.7 µM.
